Laboratory results taken from US20160264648A1 (OSAKA UNIVERSITY, published 2016).

Tests used:
[1] = target: hemagglutinin (HA) of influenza A virus A/Turkey/Wisconsin/1/1966 (H9N2) (influenza A virus A/Turkey/Wisconsin/1/1966 (H9N2)) (UniProt P03457); assay: cell-based or functional assay
[2] = target: hemagglutinin (HA) of influenza A virus A/Osaka/168/2009 (H1N1pdm) (influenza A virus A/Osaka/168/2009 (H1N1pdm)); assay: cell-based or functional assay
[3] = target: hemagglutinin (HA) of influenza A virus A/Suita/105/2011 (H1N1pdm) (influenza A virus A/Suita/105/2011 (H1N1pdm)); assay: cell-based or functional assay
[4] = target: hemagglutinin (HA) of influenza A virus A/Suita/104/2011 (H1N1pdm) (influenza A virus A/Suita/104/2011 (H1N1pdm)); assay: cell-based or functional assay
[5] = target: hemagglutinin (HA) of influenza A virus A/Brisbane/59/2007 (seasonal H1N1) (influenza A virus A/Brisbane/59/2007 (H1N1sea)); assay: cell-based or functional assay
[6] = target: hemagglutinin (HA) of influenza A virus A/Suita/117/2011 (H1N1pdm) (influenza A virus A/Suita/117/2011 (H1N1pdm)); assay: cell-based or functional assay
[7] = target: hemagglutinin (HA) of influenza A virus A/PR8/1934 (seasonal H1N1) (influenza A virus A/PR8/1934 (H1N1sea)) (UniProt P03452); assay: cell-based or functional assay
[8] = target: hemagglutinin (HA) of influenza A virus A/Duck/Egypt/D1Br12/2007 (H5N1) (influenza A virus A/Duck/Egypt/D1Br12/2007 (H5N1)); assay: cell-based or functional assay
[9] = target: hemagglutinin (HA) of influenza A virus A/Chicken/Egypt/R1MD12-3/2008 (H5N1) (influenza A virus A/Chicken/Egypt/RIMD12-3/2008 (H5N1)); assay: cell-based or functional assay
[10] = target: hemagglutinin (HA) of influenza A virus A/Aichi/2/1968 (H3N2) (influenza A virus A/Aichi/2/1968 (H3N2), UniProt P03437 17-566); assay: IFA on virus-infected MDCK cells
[11] = target: hemagglutinin (HA) of influenza A virus A/PR8/1934 (seasonal H1N1) (influenza A virus A/PR8/1934 (H1N1sea), UniProt P03452 18-565); assay: cell-based or functional assay
[12] = target: hemagglutinin (HA) of influenza A virus A/Turkey/Wisconsin/1/1966 (H9N2) (influenza A virus …, UniProt P03457 19-560); assay: cell-based or functional assay

Molecule	Neutralization activity (VN50 value µg/ml) [1] [µg/mL]	Neutralization activity (VN50 value µg/ml) [2] [µg/mL]	Neutralization activity (VN50 value µg/ml) [3] [µg/mL]	Neutralization activity (VN50 value µg/ml) [4] [µg/mL]	Neutralization activity (VN50 value µg/ml) [5] [µg/mL]	Neutralization activity (VN50 value µg/ml) [6] [µg/mL]	Neutralization activity (VN50 value µg/ml) [7] [µg/mL]	Neutralization activity (VN50 value µg/ml) [8] [µg/mL]	Neutralization activity (VN50 value µg/ml) [9] [µg/mL]	binding result [10]	Neutralization activity (VN50 value µg/ml) [11] [µg/mL]	Neutralization activity (VN50 value µg/ml) [12] [µg/mL]
mouse MAb C179 capable of exhibiting a broad reactivity with HAs belonging to group 1 (antibody)	5.53	5.68	3.11	5.98	5.57	5.73	3.1	–	–	–	–	–
human monoclonal antibody (HuMAb) 1H11 (antibody, V domains shown) VH: QVQLVQSGAEVKKPGSSVKVSCKSSGGNFNNYAVSWVRQAPGQGLEWMGGISPIFGSTNHAQKFQGRVTISADIFTNTAYMELSSLRSDDTAIYYCARGRGYYFYHAMDVWGQGSTVTVSS VL: QSALTQPASVSGSPGQSITISCTGTSSDVGGYNYVSWYQQHPGEAPKLMISDVSNRPSGVSNRFSGSKSGNTASLTISGLQAEDEADYYCTSYTSSNTLVFGGGTKLTVL	–	0.78	11.4	11.3	2.89	11.6	–	6.08	6.12	no binding	2.87	11.8
human monoclonal antibody (HuMAb) 2H5 (antibody, V domains shown) VH: QVQLVQSGAEVKKPGSSVKVSCKSSGGNFNNYAVSWVRQAPGQGLEWMGGISPIFGSTNHAQKFQGRVTISADIFTNTAYMELSSLRSDDTAIYYCARGRGYYFYHAMDVWGQGSTVTVSS VL: QSVLTQPPSVSAAPGQKVTISCSGSSSNIGHNFVSWYQQLPATAPKLLIYDTDKRPSGIPDRFSGSKSGTSATLGITGLQTGDEADYYCGTWDSSLSSVIFGGGTKLTVL	–	1.51	6.21	6	5.53	6.03	–	6.05	11.7	no binding	5.83	> 100
